T1: serum resistance-associated protein (SRA) from Trypanosoma brucei rhodesiense, recombinant SRA (SEQ ID NO: … (Trypanosoma brucei rhodesiense, UniProt O96637 31-274))
T1 construct: also called SRA protein
T1 sequence: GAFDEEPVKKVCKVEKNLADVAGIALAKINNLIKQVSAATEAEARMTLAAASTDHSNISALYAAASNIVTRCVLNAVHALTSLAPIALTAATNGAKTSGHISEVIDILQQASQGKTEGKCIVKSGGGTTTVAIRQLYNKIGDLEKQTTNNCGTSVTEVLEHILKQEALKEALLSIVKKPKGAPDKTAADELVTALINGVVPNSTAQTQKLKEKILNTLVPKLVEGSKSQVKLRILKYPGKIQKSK

T2: SRA.mmh
T2 construct: also called SRA.mmh (CHO)
T2 antigen: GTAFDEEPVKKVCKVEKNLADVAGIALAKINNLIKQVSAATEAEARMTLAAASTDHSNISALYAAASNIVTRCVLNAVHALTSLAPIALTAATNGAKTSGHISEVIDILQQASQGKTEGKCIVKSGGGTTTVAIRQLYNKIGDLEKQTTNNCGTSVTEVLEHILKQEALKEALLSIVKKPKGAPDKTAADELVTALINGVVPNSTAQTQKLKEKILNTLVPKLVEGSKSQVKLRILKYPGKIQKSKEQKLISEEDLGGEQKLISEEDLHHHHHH


Experiments:
[1] = biological target: T1, serum resistance-associated protein …; experiment: SPR, mAb captured, 25C, pH 7.4
Procedure: (§1) Equilibrium dissociation constants (KD) values for SRA binding to selected purified anti-SRA monoclonal antibodies were determined using a real-time surface plasmon resonance biosensor assay on a Biacore T200 instrument. […] SRA binding to the captured monoclonal antibodies was monitored for 4 min while the dissociation of mAb bound SRA was monitored for 7 min. Two different assays formats were adopted to characterize kinetics of SRA binding—(i) regular kinetics and (ii) pH4.5 chase. Regular kinetics experiments were performed using pH7.4 buffer as the running buffer and both the association and dissociation was performed in pH7.4. For the chase format, association and dissociation were performed in pH7.4 buffer and pH4.5 buffer respectively.
(§2) Kinetic association (kₐ) and dissociation (kd) rate constants were determined by processing and fitting the data to a 1:1 binding model using Scrubber 2.0c curve fitting software. Only the dissociation rate (kd) was calculated for the pH4.5 chase experiment. Binding dissociation equilibrium constants (KD) and dissociative half-lives (t½) were calculated from the kinetic rate constants as:

[2] = biological target: T1, serum resistance-associated protein …; experiment: SPR, 25C, t1/2 pH 7.4 over pH 4.5
Procedure: as §1, §2

[3] = biological target: T1, serum resistance-associated protein …; experiment: SPR, mAb captured, 50 nM SRA, pH 4.5, 25C
[4] = biological target: T1, serum resistance-associated protein …; experiment: SPR, mAb captured, 25C, assoc. pH 7.4, dissoc. pH 4.5
Procedure: as §1, §2

[5] = biological target: T1, serum resistance-associated protein …; experiment: SPR, mAb captured, pH 4.5, 25C; competitor biotin-apoL1 peptide
[6] = biological target: T1, serum resistance-associated protein …; experiment: SPR, mAb captured, pH 4.5, 25C; competitor biotin-mutant apoL1 peptide
SRA.mmh [7] = biological target: T2, SRA.mmh; experiment: Octet, SRA.mmh captured on anti-Penta-His tips, mAb-1 at 50 ug/mL for 5 min, 25 C, pH 7.4
SRA.mmh [8] = biological target: T2, SRA.mmh; experiment: Octet, mAb-2 at 50 ug/mL on captured SRA.mmh after negative control α-PRLR H1H6800P as mAb-1 (row 32 (-))
[9] = biological target: T1, serum resistance-associated protein …; experiment: H/D exchange MS, SRA-apoL1 peptide complex, pH 5.0
[10] = biological target: T1, serum resistance-associated protein …; experiment: SPR, mAb captured, 25C, pH 7.4; pH 7.4, 25 C
Procedure: as §1, §2

Binder | Kd [1] | kon [1] | t ½ [1] | t ½ ratio pH 7.4/pH 4.5 [2] | 50 nM SRA binding (RU) [3] | t ½ [4] | 50 nM SRA + 5 uM apoL1 peptide binding (RU) [5] | % Blocking, apoL1 peptide [5] | 50 nM SRA + 5 uM mutant apoL1 peptide binding (RU) [6] | % Blocking, Mutant apoL1 peptide [6] | 50 ug/mL mAb 1 Bound (nm) (SRA.mmh [7]) | Binding of mAb-2 to SRA Pre-complexed with mAb-1 (SRA.mmh [8]) | binding result [9] | koff [10]
H2aM10204N (antibody, V domains shown, Chimeric antibody, human variable domains and mouse constant domains (mouse Fc, prefix H2aM); also called H2M10204N) VH: QVHLVQSGAEVKKPGSSVKVSCKASGGTFSNYAISWVRQAPGQGLEWMGGIIPFSGSATYAQNFQGRITITTDESTRTAYMELNGLRSEDTAVYYCARWFSGYGGDFDYWGQGTLVTVSS VL: AIQMTQSPSSLSASVGDRVTITCRASQDIKNDLGWYQQKPGKAPKLLIYAASTLQSGVPSRFSGSGSGTHFTLTLSSLQPEDFATYFCLQDYTFPRTFGQGTKVEIK | ≤ 0.0899 nM | 556000 M⁻¹ s⁻¹ | ≥ 3.85 h | ≥ 95 | 140 RU | 0.0333 h | 3 RU | 98% | 128 RU | 9% | 1.46 nm | 1.08 |  | 
H2aM10285N (antibody, V domains shown, Chimeric antibody, human variable domains and mouse constant domains (mouse Fc, prefix H2aM); also called H2M10285N) VH: QVQLVQSGAEVKKPGSSVKVSCKASGGTFTNFAISWVRQAPGLGLEWMGGIIPFVGTATYEQKFQGRVSITADESTRTAYMELSSLRYDDTAVYYCARWFSGSGGDFDYWGQGTLVTVSS VL: AIQMTQSPSSLSASVGDRVTITCRASQGIGNDLGWYQQRRGTAPKLLIYAASSLQSGVPSRFSGSGSGTDFTLTISSLQPEDFATYYCLQDFTFPRTFGQGTKVEIK | 0.138 nM | 1.03e+06 M⁻¹ s⁻¹ | 1.37 h | 124 | 120 RU | 0.0117 h | 8 RU | 94% | 111 RU | 8% | 1.53 nm | 1.24 |  | 
H1H10069P (antibody, V domains shown, Fully human antibody with human IgG1 Fc (prefix H1H)) VH: QVQLQESGPGLVKPSETLSLTCSVSGGSFTNYYWSWIRQPPGKGLEWIGSVFYSGTTNYNPSLQSRVTLSIETSKNQFSLRLNSVTAADTAVYYCARDQGAAALDYWGQGTLVTVSS VL: DIQMTQSPSTLSASVGDRLTITCRASQSINNWLAWYQQKPGKAPKLLIYKASNLESGVPSRFSGSGSGTEFTLTISNLQPDDFATYYCQQYNSFFLTFGGGTKVEIK | ≤ 0.0785 nM | 636000 M⁻¹ s⁻¹ | ≥ 3.85 h | ≥ 2 | 54 RU | 1.87 h | 62 RU | -13% | 52 RU | 5% | 1.61 nm | 1.37 |  | 
H1H10041P (antibody, V domains shown, Fully human antibody with human IgG1 Fc (prefix H1H)) VH: QVQLVQSGAEVRKPGSSMKVSCATSGGNFRSYTINWVRQAPGQGLEWMGGVFPAVGTRIYAQKFQGRVTISTDESTTIAYMELNSLVPEDTAVYYCARSFNSPFDFWDQGTLVTVSS VL: AIQMTQSPSSLSASVGDRVTLTCRASQDIRNDLHWFQQTPGKAPRLLIYSASNLQSGVPSRFSGTGSGTDFTLTFSSLQPEDFATYYCLQDYSYPYTFGQGTKLEIK | ≤ 0.0277 nM | 1.8e+06 M⁻¹ s⁻¹ | ≥ 3.85 h | ≥ 1 | 88 RU | 2.75 h | 3 RU | 97% | 83 RU | 5% | 1.69 nm | 1.57 |  | 
VYESKHLHEGAKSETAEELKKVAQELEEKLNILNNNYKILQADQEL (Peptide of human apolipoprotein L1 used in the H/D exchange experiment) [apoL1 peptide (SEQ ID NO: 297)] |  |  |  |  |  |  |  |  |  |  |  |  | binds | 
H1H10059P (antibody, V domains shown, Fully human antibody with human IgG1 Fc (prefix H1H)) VH: QVQLVQSGAEVKKPGASVKVSCKAAGFTFIGYYIHWVRQAPGQGLEWMGWINSNSGDKDSAPKFQDRVTMTRDTSISTAYMELSRLRSDDTAVYFCAREGYNFGHFDYWGQGTLVTVSS VL: DIVMTQTPLSSPVTLGQPASISCRSSQSLVHSDGNTYLSWLQQRPGQPPRLLIYKISNRLSGVPDRFSGSGAGTDFTLKISRVEGEDVGVYYCMQGTQFPRTFGQGTKVEIK | ≤ 0.0318 nM | 1.57e+06 M⁻¹ s⁻¹ | ≥ 3.85 h | ≥ 6 | 73 RU | 0.617 h | -9 RU | 100% | 65 RU | 11% | 1.24 nm | 1.17 |  | 
H2bM10093N (antibody, V domains shown, Chimeric antibody, human variable domains and mouse constant domains; also called H2aM10093N; H2M10093N) VH: EVQLVESGGGLVKPGGSLRLSCVASGFTLSGYSMNWVRQAPGKGLEWVSSISTSSSYIYYADSVQGRFTISRDNAKNSLYLQMNSLRAEDTAVYYCVRKGANWIYFDYWGQGTLVTVSS VL: DIQMTQSPSSVSASVGDRVTITCRASQGISSLLAWFQQKPGKAPNLLIYAASSLQSGVPSRFSGSGSGTDFTLTISSLQPEDFATYYCQQAKSFPFTFGPGTKVDIK | 0.948 nM | 521000 M⁻¹ s⁻¹ | 0.383 h | 20 | 138 RU | 0.02 h | 4 RU | 97% | 122 RU | 12% | 1.48 nm | 1.32 |  | 0.000494 s⁻¹
H1H10061P (antibody, V domains shown, Fully human antibody with human IgG1 Fc (prefix H1H)) VH: QVQLVESGGGVVQPGNSLRLSCAASGFTFSAYGMHWVRQAPGKGLEWVAVISYDGSNEFYADSVKGRFTIFRDNSKNMLYLQMNSLRVEDTSIYYCAKDRGLGVYYFFYGMDVWGQGTTVTVSS VL: DIVMTQSPDSLVVSLGERATINCKSSQSLLYSSSNNNYLTWYQQKPGRPPKLLIYWASTRESGVPDRFSGSGSGTDFTLTISSLQAEDVAIYYCQQNYITPLTFGGGTKVEIK | ≤ 0.0308 nM | 1.62e+06 M⁻¹ s⁻¹ | ≥ 3.85 h | ≥ 2 | 79 RU | 1.82 h | -5 RU | 100% | 75 RU | 5% | 1.53 nm | 1.53 |  | 

Source: patent publication US20150376269A1 (Regeneron, published 2015)
